In the supplement of paper PMC5998384:

How the values were obtained:
HeLa Kyoto [1] = assay: thermal stability score vs G1/S (z-score of summed log2 fold changes over temperatures); higher = more thermally stable than in G1/S
HeLa Kyoto [2] = assay: solubility in G1/S (NP-40 vs SDS abundance) (log2 ratio); higher = more soluble; settings: cell cycle stage: G1/S
HeLa Kyoto [3] = assay: solubility change mitosis vs G1/S (difference of NP-40 vs SDS log2 ratios) (log2 ratio difference); higher = more soluble in mitosis
HeLa Kyoto [4] = assay: melting temperature (median over replicates), in situ; higher = more thermally stable
[5] = cell cycle stage: early G1 (4.5 h after nocodazole release)
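For melting temperature (median over replicates), in situ in this document: HeLa Kyoto cells synchronized by double thymidine or nocodazole block, proteins quantified by TMT10plex mass spectrometry, three independent biological replicates.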
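For solubility change mitosis vs G1/S (difference of NP-40 vs SDS log2 ratios) in this document: synchronized HeLa Kyoto cells (double thymidine block for G1/S, nocodazole release for mitosis), protein amounts in NP-40 versus SDS lysates quantified by mass spectrometry, three biological replicates.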
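For solubility in G1/S (NP-40 vs SDS abundance) in this document: HeLa Kyoto cells arrested at G1/S by double thymidine block, proteins quantified by TMT10plex mass spectrometry in mild NP-40 versus SDS extracts, three biological replicates.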
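For thermal stability score vs G1/S (z-score of summed log2 fold changes over temperatures) in this document: synchronized HeLa Kyoto cells, proteins quantified by TMT10plex mass spectrometry, three biological replicates, mitosis taken 0.5 h after nocodazole release, G1/S directly after double thymidine block.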

| Sequence | thermal stability score (HeLa Kyoto [1]; [5]) | thermal stability score (HeLa Kyoto [1]; cell cycle stage: mitosis) | solubility in G1/S (log2) (HeLa Kyoto [2]) | solubility change mitosis (log2) (HeLa Kyoto [3]) | melting temperature (HeLa Kyoto [4]; cell cycle stage: G1/S) | melting temperature (HeLa Kyoto [4]; cell cycle stage: mitosis) |
| --- | --- | --- | --- | --- | --- | --- |
| MSPEEWTYLVVLLISIPIGFLFKKAGPGLKRWGAAAVGLGLTLFTCGPHTLHSLVTILGTWALIQAQPCSCHALALAWTFSYLLFFRALSLLGLPTPTPFTNAVQLLLTLKLVSLASEVQDLHLAQRKEMASGFSKGPTLGLLPDVPSLMETLSYSYCYVGIMTGPFFRYRTYLDWLEQPFPGAVPSLRPLLRRAWPAPLFGLLFLLSSHLFPLEAVREDAFYARPLPARLFYMIPVFFAFRMRFYVAWIAAECGCIAAGFGAYPVAAKARAGGGPTLQCPPPSSPEKAASLEYDYETIRNIDCYSTDFCVRVRDGMRYWNMTVQWWLAQYIYKSAPARSYVLRSAWTMLLSAYWHGLHPGYYLSFLTIPLCLAAEGRLESALRGRLSPGGQKAWDWVHWFLKMRAYDYMCMGFVLLSLADTLRYWASIYFCIHFLALAALGLGLALGGGSPSRRKAASQPTSLAPEKLREE [MBOAT7] | -1.37 | -1.09 | -0.091 | 0.0131 | 56.9 °C | 57 °C |
| MWLKVGGLLRGTGGQLGQTVGWPCGALGPGPHRWGPCGGSWAQKFYQDGPGRGLGEEDIRRAREARPRKTPRPQLSDRSRERKVPASRISRLANFGGLAVGLGLGVLAEMAKKSMPGGRLQSEGGSGLDSSPFLSEANAERIVQTLCTVRGAALKVGQMLSIQDNSFISPQLQHIFERVRQSADFMPRWQMLRVLEEELGRDWQAKVASLEEVPFAAASIGQVHQGLLRDGTEVAVKIQYPGIAQSIQSDVQNLLAVLKMSAALPAGLFAEQSLQALQQELAWECDYRREAACAQNFRQLLANDPFFRVPAVVKELCTTRVLGMELAGGVPLDQCQGLSQDLRNQICFQLLTLCLRELFEFRFMQTDPNWANFLYDASSHQVTLLDFGASREFGTEFTDHYIEVVKAAADGDRDCVLQKSRDLKFLTGFETKAFSDAHVEAVMILGEPFATQGPYDFGSGETARRIQDLIPVLLRHRLCPPPEETYALHRKLAGAFLACAHLRAHIACRDLFQDTYHRYWASRQPDAATAGSLPTKGDSWVDPS [ADCK4] | -0.115 | 0.518 | 0.00454 | 0.0635 | 50.7 °C | 49.8 °C |
| MAGASELGTGPGAAGGDGDDSLYPIAVLIDELRNEDVQLRLNSIKKLSTIALALGVERTRSELLPFLTDTIYDEDEVLLALAEQLGNFTGLVGGPDFAHCLLPPLENLATVEETVVRDKAVESLRQISQEHTPVALEAYFVPLVKRLASGDWFTSRTSACGLFSVCYPRASNAVKAEIRQQFRSLCSDDTPMVRRAAASKLGEFAKVLELDSVKSEIVPLFTSLASDEQDSVRLLAVEACVSIAQLLSQDDLETLVMPTLRQAAEDKSWRVRYMVADRFSELQKAMGPKITLNDLIPAFQNLLKDCEAEVRAAAAHKVKELGENLPIEDRETIIMNQILPYIKELVSDTNQHVKSALASVIMGLSTILGKENTIEHLLPLFLAQLKDECPDVRLNIISNLDCVNEVIGIRQLSQSLLPAIVELAEDAKWRVRLAIIEYMPLLAGQLGVEFFDEKLNSLCMAWLVDHVYAIREAATNNLMKLVQKFGTEWAQNTIVPKVLVMANDPNYLHRMTTLFCINALSEACGQEITTKQMLPIVLKMAGDQVANVRFNVAKSLQKIGPILDTNALQGEVKPVLQKLGQDEDMDVKYFAQEAISVLALA [PPP2R1B] | 1.92 | 2.96 | 0.391 | -0.0603 | 49.2 °C | 49.6 °C |
| MLKPQPLQQPSQPQQPPPTQQAVARRPPGGTSPPNGGLPGPLATSAAPPGPPAAASPCLGPVAAAGSGLRRGAEGILAPQPPPPQQHQERPGAAAIGSARGQSTGKGPPQSPVFEGVYNNSRMLHFLTAVVGSTCDVKVKNGTTYEGIFKTLSSKFELAVDAVHRKASEPAGGPRREDIVDTMVFKPSDVMLVHFRNVDFNYATKDKFTDSAIAMNSKVNGEHKEKVLQRWEGGDSNSDDYDLESDMSNGWDPNEMFKFNEENYGVKTTYDSSLSSYTVPLEKDNSEEFRQRELRAAQLAREIESSPQYRLRIAMENDDGRTEEEKHSAVQRQGSGRESPSLASREGKYIPLPQRVREGPRGGVRCSSSRGGRPGLSSLPPRGPHHLDNSSPGPGSEARGINGGPSRMSPKAQRPLRGAKTLSSPSNRPSGETSVPPPPAVGRMYPPRSPKSAAPAPISASCPEPPIGSAVPTSSASIPVTSSVSDPGVGSISPASPKISLAPTDVKELSTKEPGRTLEPQELARIAGKVPGLQNEQKRFQLEELRKFGAQFKLQPSSSPENSLDPFPPRILKEEPKGKEKEVDGLLTSEPMGSPVSSKTESVSDKEDKPPLAPSGGTEGPEQPPPPCPSQTGSPPVGLIKGEDKDEGPVAEQVKKSTLNPNAKEFNPTKPLLSVNKSTSTPTSPGPRTHSTPSIPVLTAGQSGLYSPQYISYIPQIHMGPAVQAPQMYPYPVSNSVPGQQGKYRGAKGSLPPQRSDQHQPASAPPMMQAAAAAGPPLVAATPYSSYIPYNPQQFPGQPAMMQPMAHYPSQPVFAPMLQSNPRMLTSGSHPQAIVSSSTPQYPSAEQPTPQALYATVHQSYPHHATQLHAHQPQPATTPTGSQPQSQHAAPSPVQHQAGQAPHLGSGQPQQNLYHPGALTGTPPSLPPGPSAQSPQSSFPQPAAVYAIHHQQLPHGFTNMAHVTQAHVQTGITAAPPPHPGAPHPPQVMLLHPPQSHGGPPQGAVPQSGVPALSASTPSPYPYIGHPQGEQPGQAPGFPGGADDRIREFSLAGGIWHGRAEGLQVGQDARVLGGE [ATXN2L] | -0.388 | -1.51 | -0.0191 | 0.367 | 52.3 °C | 53.2 °C |
| MDTMMLNVRNLFEQLVRRVEILSEGNEVQFIQLAKDFEDFRKKWQRTDHELGKYKDLLMKAETERSALDVKLKHARNQVDVEIKRRQRAEADCEKLERQIQLIREMLMCDTSGSIQLSEEQKSALAFLNRGQPSSSNAGNKRLSTIDESGSILSDISFDKTDESLDWDSSLVKTFKLKKREKRRSTSRQFVDGPPGPVKKTRSIGSAVDQGNESIVAKTTVTVPNDGGPIEAVSTIETVPYWTRSRRKTGTLQPWNSDSTLNSRQLEPRTETDSVGTPQSNGGMRLHDFVSKTVIKPESCVPCGKRIKFGKLSLKCRDCRVVSHPECRDRCPLPCIPTLIGTPVKIGEGMLADFVSQTSPMIPSIVVHCVNEIEQRGLTETGLYRISGCDRTVKELKEKFLRVKTVPLLSKVDDIHAICSLLKDFLRNLKEPLLTFRLNRAFMEAAEITDEDNSIAAMYQAVGELPQANRDTLAFLMIHLQRVAQSPHTKMDVANLAKVFGPTIVAHAVPNPDPVTMLQDIKRQPKVVERLLSLPLEYWSQFMMVEQENIDPLHVIENSNAFSTPQTPDIKVSLLGPVTTPEHQLLKTPSSSSLSQRVRSTLTKNTPRFGSKSKSATNLGRQGNFFASPMLK [RACGAP1] | 1.13 | 1.61 | -0.106 | 0.141 | 48.1 °C | 49.1 °C |
| MSDKSELKAELERKKQRLAQIREEKKRKEEERKKKETDQKKEAVAPVQEESDLEKKRREAEALLQSMGLTPESPIVFSEYWVPPPMSPSSKSVSTPSEAGSQDSGDGAVGSRTLHWDTDPSVLQLHSDSDLGRGPIKLGMAKITQVDFPPREIVTYTKETQTPVMAQPKEDEEEDDDVVAPKPPIEPEEEKTLKKDEENDSKAPPHELTEEEKQQILHSEEFLSFFDHSTRIVERALSEQINIFFDYSGRDLEDKEGEIQAGAKLSLNRQFFDERWSKHRVVSCLDWSSQYPELLVASYNNNEDAPHEPDGVALVWNMKYKKTTPEYVFHCQSAVMSATFAKFHPNLVVGGTYSGQIVLWDNRSNKRTPVQRTPLSAAAHTHPVYCVNVVGTQNAHNLISISTDGKICSWSLDMLSHPQDSMELVHKQSKAVAVTSMSFPVGDVNNFVVGSEEGSVYTACRHGSKAGISEMFEGHQGPITGIHCHAAVGAVDFSHLFVTSSFDWTVKLWTTKNNKPLYSFEDNADYVYDVMWSPTHPALFACVDGMGRLDLWNLNNDTEVPTASISVEGNPALNRVRWTHSGREIAVGDSEGQIVIYDVGEQIAVPRNDEWARFGRTLAEINANRADAEEEAATRIPA [DYNC1I2] | -2.66 | -3.05 | -0.0277 | -0.0123 | 53.2 °C | 52.3 °C |
